Assay results taken from patent US20040009911A1, “Hepsin substrates and prodrugs” (IRM, LLC, priority 2002, published 2004).
ACC/ACMC = fluorogenic leaving group

Legend:
recombinant hepsin [1] = biological target: T1, recombinant hepsin (Homo sapiens, UniProt P05981); test: Cleavage of fluorogenic tetrapeptide substrates by recombinant hepsin expressed in insect cells; format: biochemical; design: Hep136 (covering the prodomain and the catalytic domain); amino acids 46-417; honeybee melittin secretion signal (Mel) (N); made in house; host or cells: SP9 (Sf9) insect cells, baculovirus, pFastBac1; conditions: with and without a histidine tag
Procedure: SP9 cells were infected with recombinant virus at a MOI of 5-10 and the activity of hepsin in the supernatant was monitored by the hydrolysis of a fluorogenic peptide, KRLR-ACC. […] To determine the optimal expression time, activity was monitored for 72 hours after infection.
The activity of hepsin expressed and purified as described above was tested using the following substrates, which were synthesized based on the substrate specificity profile from the positional scanning libraries described above: Acetyl-Pro-Arg-Leu-Arg-ACC/ACMC and Acetyl-Lys-Arg-Leu-Arg-ACC/ACMC.
Target sequence in this assay (P05981 46-417): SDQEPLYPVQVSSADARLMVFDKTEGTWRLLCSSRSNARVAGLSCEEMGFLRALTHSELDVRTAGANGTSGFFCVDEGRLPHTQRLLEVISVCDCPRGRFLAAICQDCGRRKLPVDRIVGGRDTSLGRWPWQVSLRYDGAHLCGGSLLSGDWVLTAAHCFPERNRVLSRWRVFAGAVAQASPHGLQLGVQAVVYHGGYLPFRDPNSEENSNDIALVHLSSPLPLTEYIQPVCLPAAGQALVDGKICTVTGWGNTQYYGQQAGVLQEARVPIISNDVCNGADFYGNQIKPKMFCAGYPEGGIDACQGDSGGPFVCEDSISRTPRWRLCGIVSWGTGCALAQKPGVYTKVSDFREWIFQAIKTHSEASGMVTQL

recombinant hepsin [2] = biological target: T1, recombinant hepsin; test: Activation of pro-uPA by hepsin, monitored with uPA substrate GTAR-acc; format: biochemical; design: made in house; conditions: 1 nM recombinant hepsin, 100 μM GTAR-acc; FIG. 10 (squares)
Procedure: To test whether hepsin is capable of activating pro-uPA (and thereby potentially initiating this proteolytic cascade), uPA was screened through a coumarin-based substrate library and a substrate was designed to monitor uPA proteolytic activity. The substrate designed to monitor uPA activity is Acetyl-Gly-Thr-Ala-Arg-[7-amino-4-carbomoylcoumarin] (GTAR-acc). 2 μM of pro-uPA was incubated with 1 nM of recombinant hepsin and 100 μM of GTAR-acc.
Target sequence in this assay (P05981 whole entry, the tested form may be a part): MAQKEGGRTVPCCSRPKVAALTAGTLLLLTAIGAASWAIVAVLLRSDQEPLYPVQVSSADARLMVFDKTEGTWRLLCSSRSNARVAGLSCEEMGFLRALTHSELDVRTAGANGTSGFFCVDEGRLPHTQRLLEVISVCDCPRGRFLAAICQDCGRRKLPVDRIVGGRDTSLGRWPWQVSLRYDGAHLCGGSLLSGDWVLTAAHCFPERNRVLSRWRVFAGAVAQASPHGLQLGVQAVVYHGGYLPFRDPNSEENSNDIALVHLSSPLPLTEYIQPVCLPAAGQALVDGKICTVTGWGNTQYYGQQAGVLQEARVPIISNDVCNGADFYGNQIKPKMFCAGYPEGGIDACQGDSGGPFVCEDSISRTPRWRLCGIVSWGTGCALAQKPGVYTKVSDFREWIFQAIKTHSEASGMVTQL

| Substance | cleavage by recombinant hepsin (recombinant hepsin [1]) | cleavage of GTAR-acc by hepsin (recombinant hepsin [2]) |
| --- | --- | --- |
| Acetyl-Pro-Arg-Leu-Arg-ACC/ACMC (Ac-PRLR-{ACC/ACMC}; also: C-terminal ACC/ACMC fluorophore) [N-acetyl tetrapeptide hepsin substrate with C-terminal coumarin fluorophore (ACC or ACMC)] | efficiently cleaved |  |
| Acetyl-Lys-Arg-Leu-Arg-ACC/ACMC (Ac-KRLR-{ACC/ACMC}; also: C-terminal ACC/ACMC fluorophore) [N-acetyl tetrapeptide hepsin substrate with C-terminal coumarin fluorophore (ACC or ACMC)] | efficiently cleaved |  |
| Acetyl-Gly-Thr-Ala-Arg-[7-amino-4-carbomoylcoumarin] (Ac-GTAR-{7‑amino‑4‑carbamoylcoumarin}) [GTAR-acc] |  | only marginally cleaves |
